Assay results as given in US20250270308A1 (UCB, published 2025).

Target: T1, human TNFα in complex with compound (1) (human, UniProt P01375 77-233)
T1 construct: also called human TNFα + compound (1); compound-distorted human TNFα
Assay: size exclusion HPLC

T1 sequence (P01375 77-233 limits assumed, one chain of several): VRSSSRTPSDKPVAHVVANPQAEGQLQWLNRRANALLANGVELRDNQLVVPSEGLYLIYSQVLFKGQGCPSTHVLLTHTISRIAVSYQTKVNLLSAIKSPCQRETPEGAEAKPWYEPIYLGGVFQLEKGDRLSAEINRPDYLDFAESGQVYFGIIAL

B1: CA185_01979 mouse Fab (no hinge) (Fab, V domains shown)
VH: EVHLVESGPGLVKPSQSLSLTCSVTGYSITNSYWDWIRKFPGNKMEWMGYINYSGSTGYNPSLKSRISISRDTSNNQFFLQLNSITTEDTATYYCARGTYGYNAYHFDYWGRGVMVTVSS
VL: DIQMTQSPASLSASLEEIVTITCQASQDIGNWLSWYQQKPGKSPHLLIYGTTSLADGVPSRFSGSRSGTQYSLKISGLQVADIGIYVCLQAYSTPFTFGSGTKLEIKR
notes: also called CA185_01979 mFab; CA185-01979 Fab fragment
Work on B1 yielded a stoichiometry of 1 Fab per TNFα trimer.
